Molecular target: T1, A/Serbia/NS-601/2014 H1N1 NA, soluble tetramer with His tag attached (Influenza A virus A/Serbia/NS-601/2014 …, strain)
T1 chain: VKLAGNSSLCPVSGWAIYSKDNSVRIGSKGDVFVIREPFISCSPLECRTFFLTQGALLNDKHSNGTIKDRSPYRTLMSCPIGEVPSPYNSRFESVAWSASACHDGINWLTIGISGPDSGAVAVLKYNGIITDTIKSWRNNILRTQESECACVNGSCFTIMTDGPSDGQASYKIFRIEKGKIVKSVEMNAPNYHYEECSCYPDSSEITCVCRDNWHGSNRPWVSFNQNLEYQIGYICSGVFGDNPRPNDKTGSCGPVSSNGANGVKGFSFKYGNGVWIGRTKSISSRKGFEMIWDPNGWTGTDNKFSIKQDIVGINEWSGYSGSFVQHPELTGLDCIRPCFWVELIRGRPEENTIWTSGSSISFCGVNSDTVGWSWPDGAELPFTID
Assay: SPR
Settings: both partners purified

B1: Z2B3-D102R Fab (Fab, V domains shown)
VH: EVQLVQSGAEVKKPGSSVKVSCKASGGPFSSYGFSWVRQAPGQGLEWMGGIIPVYGTTNYAQKFQGRVTITADESTSTAYMELSSLKSEDTAVYYCARDLQRTPMVDRIIGSYYYYNGLDVWGQGTTVTVSS
VL: QSVLTQPASVSGSPGQSITISCTGASSDVGDYNYVSWYQQHPGKAPKLMIYDVSNRPSGVSNRFSGSKSGDTASLTISGLQAEDEADYYCSSYTRSSSVVFGGGTKLTVL
Binder B1 has a Kd of 401 nM.

From article PMC7542365 (mBio, 2020)
